Laboratory results published in article PMC3419727, “Identifying the Hotspots on the Top Faces of WD40-Repeat Proteins from Their Primary Sequences by β-Bulges and DHSW Tetrads” (PLoS ONE, 2012).

B1: S. japonicus Tup11 WD40 domain (amino acids 301–630), wild type [S. japonicus] / C-terminal region of S. pombe Fep1 (amino acids 319–564) [S. pombe] (parent complex)
chain 1: ERTKESGQDWYAVYNEKMPKRMSIGLVHTLEHKSVVCCVRFSADGKYLATGCNRAAEIFDVQTGQKLATFEQENTNPETDLYIRSVAFSPDGKYLVTGAEDRQIRMWDIATGKVKHVFVGHEQDIYSLDYSRDGRYIVSGSGDHTARLWEAETGKCVLTLAIENGVTAVAFSPNNQFIAAGSLDQVIRVWSITGTLLKKLEGHRESVYSIAFSADGKYLASGSLDKTMRLWELKLDENAKTCSKASAISTYTGHSNFVLSVAISPNGKWAVSGSKDRSVQFWNLKTDELYLTFQGHKNSVISVCFSPDGKLFATGSGDLRARIWSIEDTA
chain 2: AAGEPDNNGKVYYSYGPTQEQSILPLPENKHEGLPPYQNEYVPNGIRANQVVYPGQLVAVGNDSSKQLSESTTSNTDNNGVATANQSNPLGMKFHLPPILPVGESVCLPPRTSAKPRIAEGIASLLNPEEPPSNSDKQPSMSNGPKSEVSPSQSQQAPLIQSSTSPVSLQFPPEVQGSNVDKRNYALNVLSQLRSQHDLMIQELHNLNQHIQQIDEWLRSSDNENMASEHIKSSTPAVVASGALQT

Variants of: B1
Assay: ITC; parent: -6.6; read off a plot

Variant | dG [kcal/mol]
chain 1 E100A | ~-6.2
chain 1 F257A | ~-5.9
chain 1 L224A | ~-6
chain 1 Y208A | ~-5.6
chain 1 R84A | ~-5.4
chain 1 I301A | ~-5.4
chain 1 Y126A | ~-5.6
chain 1 L183S | ~-6.8
chain 1 D124A | ~-6.9
chain 1 T167A | ~-6.4
chain 1 C37A | ~-6.2
